The values that follow come from patent US20220073611A1 (LANKENAU INSTITUTE FOR MEDICAL RESEARCH, published 2022).

Experiment [1] concerns the target T1, TEV protease-mobilized soluble ATD (human, UniProt Q05586 19-561, biotinylated (Sulfo-NHS-Biotin) in the titration on plate-bound 5F5).
T1 construct: also called mobilized ATD; plate-adherent ATD
As to the kind of experiment: ELISA, ATD captured on the plate by a Myc tag antibody. The protocol:
To test binding of human NR1 antibodies to plate-adherent ATD, we added 5 μg/mL Myc antibody (C3956, Sigma-Aldrich) (100 μl/well) to Black 96-well plates (12-566-24, Thermo Fisher) overnight, washed the plates 3 times with PBST, blocked with 5% inactivated fetal bovine serum and 3% Goat serum (Invitrogen) in PBST for 1 h at 37° C., washed 3 times, added 5 μg/mL ATD, and then incubated for 1 h at 37° C. and washed 3 more times. We added human mAbs, 5F5, 2G6, 1D1, and control isotype 6A at 5 μg/mL (100 μl/well), or 5 μg/mL anti-NR1 mAb (MAB 1586 RUHL, Millipore), in triplicate samples, and incubated for 1 h at 37° C. After three additional PBST washes, secondary antibodies were added, either an anti-human IgG HRP conjugate (9040-05 Southern Biotech, Birmingham, Ala.) or anti-mouse IgG HRP conjugate (1010-05, Southern Biotech), at 1:2000 and incubated for 1 h at 37° C., followed by 3 washes. Super Signal ELISA Femto Substrate was used for detection. Data was collected in the Biotek SYNERGY II Microplate reader and analyzed with Microsoft Excel.

In experiment [2] the target is T2, NR1 ATD fusion protein on 293T-ATD cells (human).
T2 construct: also called HEK293T-ATD; GluN1-ATD fused to the PDGF receptor transmembrane domain
T2 sequence (chain, as listed by the source limits assumed): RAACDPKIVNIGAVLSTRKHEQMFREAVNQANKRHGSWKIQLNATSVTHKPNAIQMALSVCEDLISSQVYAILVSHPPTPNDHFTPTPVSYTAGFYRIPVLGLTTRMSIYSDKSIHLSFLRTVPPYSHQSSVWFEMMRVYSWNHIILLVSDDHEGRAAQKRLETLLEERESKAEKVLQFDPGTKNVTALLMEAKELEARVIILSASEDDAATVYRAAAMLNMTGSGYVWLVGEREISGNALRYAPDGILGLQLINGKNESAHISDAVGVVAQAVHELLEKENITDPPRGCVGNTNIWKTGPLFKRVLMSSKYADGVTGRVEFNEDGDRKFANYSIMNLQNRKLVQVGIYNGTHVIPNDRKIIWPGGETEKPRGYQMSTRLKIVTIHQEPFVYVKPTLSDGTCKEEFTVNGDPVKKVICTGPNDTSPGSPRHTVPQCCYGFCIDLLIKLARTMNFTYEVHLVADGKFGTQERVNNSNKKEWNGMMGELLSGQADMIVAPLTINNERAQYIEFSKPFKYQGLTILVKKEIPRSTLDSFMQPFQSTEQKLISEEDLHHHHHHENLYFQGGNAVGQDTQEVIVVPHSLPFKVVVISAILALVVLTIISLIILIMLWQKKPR
In words: flow cytometry on 293T-ATD cells, co-stained with commercial anti-NR1 mAb. The protocol: Primary antibodies included the BIOORBYT APC-labeled NR1 mAb at 10 μg/mL, an ALEXA FLUOR 488 labeled Myc tag mAb at 2 μg/mL (16-308, Millipore, Billerica, Mass.) three human IgG mAbs (5 μg/mL) isolated from a patient with ANRE (5F5, 2G6, 1D1) and the 6A isotype control mAb¹⁴. As a secondary antibody for the human mAbs, we used a FITC-conjugated F(ab′)2 goat anti-human IgG (109-096-008, Jackson ImmunoResearch, West Grove, Pa.). Cells were assayed with a BD FACSCANTO II (Becton Dickson, Franklin Lakes, N.J.). Data were analyzed using FLOWJO 8.8.7. Software (Tree Star, Ashland, Oreg.).

T1 sequence (Q05586 other isoform, or with tags, fused parts or gaps): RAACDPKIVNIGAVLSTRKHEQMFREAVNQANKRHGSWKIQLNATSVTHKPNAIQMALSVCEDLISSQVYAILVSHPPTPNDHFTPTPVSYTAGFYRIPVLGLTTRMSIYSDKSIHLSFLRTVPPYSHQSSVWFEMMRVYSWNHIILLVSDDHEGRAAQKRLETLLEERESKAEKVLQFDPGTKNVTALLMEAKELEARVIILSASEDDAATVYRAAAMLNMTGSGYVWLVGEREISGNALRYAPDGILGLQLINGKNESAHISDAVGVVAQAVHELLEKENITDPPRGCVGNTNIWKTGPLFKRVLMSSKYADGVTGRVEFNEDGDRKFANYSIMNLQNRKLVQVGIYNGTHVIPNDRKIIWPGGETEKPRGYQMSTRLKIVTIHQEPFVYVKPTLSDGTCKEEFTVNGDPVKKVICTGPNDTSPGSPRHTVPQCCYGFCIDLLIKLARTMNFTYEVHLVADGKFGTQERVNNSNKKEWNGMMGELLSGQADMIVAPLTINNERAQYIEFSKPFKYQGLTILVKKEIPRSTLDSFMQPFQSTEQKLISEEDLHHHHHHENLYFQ

B1: mAb 1D1 (antibody, V domains shown)
VH: LVQLVESGGGVVQSGRSLRLSCAASGFAFHTFTIHWVRQAPGKGLDWVTAIYFDGTKKYYADSVKGRFTVSRDNSKNTVYLQMNGLRGEDTAVYYCARARYSYGLSFDYWGQGTPVTVSS
VL: QSVVTQPPSVSAAPGQKVTISCSASSSYLGSNYVSWYQQLPGTAPKLLIYDNNKRSSGISDRFSGSKSGTSATLDITGLQTGDEADYYCGAWDSSLSVVVFGGGTKLTVL
notes: Human IgG mAb from an ANRE patient; also called 1G1; 1DA
B1: in experiment [1], the binding result is given as “binds”. In addition, in experiment [2], the “Percent GluN1 positive 293T-ATD cells bound” value is 53.7% and the double positive cells came out at 37%.

B2: mAb 5F5 (antibody, V domains shown)
VH: QVQLVESGGGVVRPGGSLRLSCAASGFTFSTYSLHWVRQAPGKGLEWVGVILYDGSKKYYADSVRGRFTISRDNSKSTLNLDMSSLRPDDTAVYYCARDPIAVAPRPSGMVPQGFDYWGQGTLVTVSS
VL: QSVVTQPPSASGTPGQRVTISCSGSSSNIGRNFVFWYRQLPGTAPKVLIYKNIQRPSGVPDRISGSRSGSSASLAISGLRSEDEADYYCASWDDSLSGVVFGGGTKLTVL
notes: Biotinylated or CypHer5E-labelled in some assays; also called SFS; 5G5
B2: the binding result in experiment [1] was “binds”. In addition, in experiment [2], the “Percent GluN1 positive 293T-ATD cells bound” value is 90.5% and the double positive cells came out at 62.3%.

B3: mAb 2G6 (antibody, V domains shown)
VH: QVQLQESGGGVVQPGRSLRLSCAASGFSFNAFAMHWVRQAPGKGLEWVARISHYGSDDYYADSVKGRFTISRDNSQNTLFLQMNSLKAEDTGVYYCWRGFTLVRGVISRNPINRFSGMDVWGQGTTVTVS
VL: SYELMQPPSVSVSPGQTARITCSGDALPKKYAYWYQQKSGQAPILVIYEDNKRPSGIPERFSGSSSGTMATLTISGAQVEDEADYFCYSTDSSGNHGVFGGGTKLTVL
notes: Human IgG lambda mAb from a hybridoma of an ANRE patient; Biotinylated or CypHer5E-labelled in some assays; also called 2C6; 2G6-biotin
As for B3, the binding result in experiment [1] was “binds”. For the same molecule, in experiment [2], the “Percent GluN1 positive 293T-ATD cells bound” value amounted to 58.8% and the double positive cells was 40.5%.
